# Like-named read-outs stand apart in the source and are kept apart here.
# What was measured:
# Conditions in all cases: ligand
# [1] = molecular target: human insulin receptor isoform A (human) (UniProt P06213)
# [2] = molecular target: human IGF-1 receptor (human) (UniProt P08069)
# [3] = molecular target: human insulin receptor isoform A (human) (UniProt P06213); remark: listed apart in the source
# [4] = molecular target: human IGF-1 receptor (human) (UniProt P08069); remark: listed apart in the source
# [5] = molecular target: human IGF-1 receptor (human) (UniProt P08069); remark: listed apart in the source
# [6] = molecular target: human insulin receptor isoform A (human) (UniProt P06213); remark: listed apart in the source
# [7] = molecular target: human IGF-1 receptor (human) (UniProt P08069); remark: listed apart in the source
# [8] = molecular target: human insulin receptor isoform A (human) (UniProt P06213); remark: listed apart in the source
# [9] = molecular target: human IGF-1 receptor (human) (UniProt P08069); remark: listed apart in the source
# [10] = molecular target: human insulin receptor isoform A (human) (UniProt P06213); remark: listed apart in the source
# Sequence of UniProt P06213 (P06213 other isoform, or with tags, fused parts or gaps): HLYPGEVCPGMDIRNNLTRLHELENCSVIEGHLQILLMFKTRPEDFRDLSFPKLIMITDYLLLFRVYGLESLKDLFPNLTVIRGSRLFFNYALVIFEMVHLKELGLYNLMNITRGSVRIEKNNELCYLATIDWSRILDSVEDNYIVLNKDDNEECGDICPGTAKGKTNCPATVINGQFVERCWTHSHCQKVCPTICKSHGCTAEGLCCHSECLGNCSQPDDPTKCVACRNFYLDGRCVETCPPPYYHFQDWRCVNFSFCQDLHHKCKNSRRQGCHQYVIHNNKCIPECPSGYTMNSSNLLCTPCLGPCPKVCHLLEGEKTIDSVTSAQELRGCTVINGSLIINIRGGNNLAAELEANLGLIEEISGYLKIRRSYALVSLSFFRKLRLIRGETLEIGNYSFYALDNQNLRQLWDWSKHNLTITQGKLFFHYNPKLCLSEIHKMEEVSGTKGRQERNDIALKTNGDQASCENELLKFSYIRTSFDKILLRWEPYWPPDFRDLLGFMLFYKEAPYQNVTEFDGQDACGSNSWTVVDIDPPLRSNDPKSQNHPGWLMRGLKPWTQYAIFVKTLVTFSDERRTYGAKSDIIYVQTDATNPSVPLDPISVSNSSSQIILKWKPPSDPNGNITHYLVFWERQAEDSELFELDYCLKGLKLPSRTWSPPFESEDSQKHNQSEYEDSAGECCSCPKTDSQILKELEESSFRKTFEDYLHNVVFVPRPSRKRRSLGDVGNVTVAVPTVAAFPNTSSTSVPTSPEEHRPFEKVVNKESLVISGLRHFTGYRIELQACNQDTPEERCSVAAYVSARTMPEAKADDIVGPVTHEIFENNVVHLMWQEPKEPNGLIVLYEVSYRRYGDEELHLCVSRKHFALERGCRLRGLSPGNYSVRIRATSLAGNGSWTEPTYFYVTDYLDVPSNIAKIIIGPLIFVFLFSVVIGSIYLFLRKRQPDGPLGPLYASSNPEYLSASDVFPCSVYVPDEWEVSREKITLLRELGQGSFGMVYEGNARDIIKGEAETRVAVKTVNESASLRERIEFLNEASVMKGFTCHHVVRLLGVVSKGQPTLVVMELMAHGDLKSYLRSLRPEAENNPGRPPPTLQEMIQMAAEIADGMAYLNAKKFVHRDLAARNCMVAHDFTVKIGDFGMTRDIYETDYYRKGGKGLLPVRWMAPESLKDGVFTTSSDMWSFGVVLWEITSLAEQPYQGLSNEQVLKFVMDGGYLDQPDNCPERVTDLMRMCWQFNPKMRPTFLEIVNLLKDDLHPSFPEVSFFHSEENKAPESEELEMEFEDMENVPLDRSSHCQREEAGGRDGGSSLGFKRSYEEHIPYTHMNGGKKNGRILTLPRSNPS
substance,measurement,setting,value
Asp-57–IGF-2 (from UniProt P01344 49-115),Kd,[1],2.96 nM
same,Kd,[2],0.5 nM
Thr-50–IGF-2 (from UniProt P01344 49-115),Kd,[3],2.7 nM
same,Kd,[4],0.84 nM
Val-53–IGF-2 (from UniProt P01344 49-115),Kd,[5],1.5 nM
same,Kd,[6],2.9 nM
His-53–IGF-2 (from UniProt P01344 49-115),Kd,[7],1.2 nM
same,Kd,[8],4.1 nM
His-50–IGF-2 (from UniProt P01344 49-115),Kd,[9],1.6 nM
same,Kd,[10],2.1 nM
